Data as given in article PMC3035472.

Biological target: sigma A (primary sigma factor), wild type, refolded from inclusion bodies (Bacillus subtilis, UniProt P06224 1-371)
Assay: EMSA

sigma A (primary sigma factor), wild type, refolded from inclusion bodies, sequence (P06224 whole entry): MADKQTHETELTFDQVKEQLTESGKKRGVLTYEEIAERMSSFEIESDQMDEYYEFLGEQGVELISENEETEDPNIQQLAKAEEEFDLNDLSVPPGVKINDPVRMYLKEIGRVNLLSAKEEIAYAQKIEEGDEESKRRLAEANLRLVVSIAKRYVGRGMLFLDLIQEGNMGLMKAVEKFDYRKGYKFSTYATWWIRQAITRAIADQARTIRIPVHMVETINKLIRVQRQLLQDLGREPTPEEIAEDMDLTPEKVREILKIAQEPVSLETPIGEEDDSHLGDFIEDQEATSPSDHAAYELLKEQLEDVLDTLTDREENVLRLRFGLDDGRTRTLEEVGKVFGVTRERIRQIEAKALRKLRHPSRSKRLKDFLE

B1: tgbp3 cDNA fragment (non-promoter) (dsDNA)
DNA 1: AGACTACCATGGCTCTAAACACTGACACACTATGCATCATTCTGTTCATACTAATATTAGGCATCCTATATAATATACTTCAACAGCATCTGCCCCCACCATGTGAAATAATAATAAACGGGCACACTATATCCATTAGGGGCAACTGCTACCACACCACCTCCAGCCTCGAGCACCAC
DNA 2: GTGGTGCTCGAGGCTGGAGGTGGTGTGGTAGCAGTTGCCCCTAATGGATATAGTGTGCCCGTTTATTATTATTTCACATGGTGGGGGCAGATGCTGTTGAAGTATATTATATAGGATGCCTAATATTAGTATGAACAGAATGATGCATAGTGTGTCAGTGTTTAGAGCCATGGTAGTCT
Question: Does B1 bind?
Answer: binds
